The labels stand for the following.
B2: GST-Smurf1 (Smad ubiquitination regulatory factor-1) (enzyme, UniProt Q9HCE7-2 1-731, looked up)
chain: MSNPGTRRNGSSIKIRLTVLCAKNLAKKDFFRLPDPFAKIVVDGSGQCHSTDTVKNTLDPKWNQHYDLYVGKTDSITISVWNHKKIHKKQGAGFLGCVRLLSNAISRLKDTGYQRLDLCKLNPSDTDAVRGQIVVSLQTRDRIGTGGSVVDCRGLLENEGTVYEDSGPGRPLSCFMEEPAPYTDSTGAAAGGGNCRFVESPSQDQRLQAQRLRNPDVRGSLQTPQNRPHGHQSPELPEGYEQRTTVQGQVYFLHTQTGVSTWHDPRIPRDLNSVNCDELGPLPPGWEVRSTVSGRIYFVDHNNRTTQFTDPRLHHIMNHQCQLKEPSQPLPLPSEGSLEDEELPAQRYERDLVQKLKVLRHELSLQQPQAGHCRIEVSREEIFEESYRQIMKMRPKDLKKRLMVKFRGEEGLDYGGVAREWLYLLCHEMLNPYYGLFQYSTDNIYMLQINPDSSINPDHLSYFHFVGRIMGLAVFHGHYINGGFTVPFYKQLLGKPIQLSDLESVDPELHKSLVWILENDITPVLDHTFCVEHNAFGRILQHELKPNGRNVPVTEENKKEYVRLYVNWRFMRGIEAQFLALQKGFNELIPQHLLKPFDQKELELIIGGLDKIDLNDWKSNTRLKHCVADSNIVRWFWQAVETFDEERRARLLQFVTGSTRVPLQGFKALQGSTGAAGPRLFTIHLIDANTDNLPKAHTCFNRIDIPPYESYEKLYEKLLTAVEETCGFAVE
notes: Smurf1, HECT-type ubiquitin ligase; also called GST-tagged Smurf1; source: bacteria-expressed, immobilized on Glutathione-Sepharose 4B beads

Assay in all cases: pull-down; GST fusion immobilized on Glutathione-Sepharose 4B beads, incubated with the partner for 8 h at 4°C; washed with GST-binding buffer (100 mM NaCl, 50 mM NaF, 2 mM EDTA, 1% NP-40); immunoblotting; also run with B06 and B75 where the paper says they had no effect
Common to all, as to conditions: both partners purified
For orientation: Immunoblotting shows a protein as a band on a membrane.

For experiment [1], the target named is B2.
The next experiment addresses T1, His-Ub (ubiquitin) (UniProt P0CG48 1-76).
T1 construct: ubiquitin, single (mono) ubiquitin; also called mono-Ub; single Ub protein

The target in the next experiment is T2, UbcH7 (UniProt P68036 1-154).
T2 construct: UbcH7, ubiquitin-conjugating enzyme (E2) of Smurf1; The methods say the assay is the same as GST-Smurf1 with His-Ub, so a His tag is likely; also called E2; source: prokaryotic expressed, purified
T2 sequence (P68036 whole entry): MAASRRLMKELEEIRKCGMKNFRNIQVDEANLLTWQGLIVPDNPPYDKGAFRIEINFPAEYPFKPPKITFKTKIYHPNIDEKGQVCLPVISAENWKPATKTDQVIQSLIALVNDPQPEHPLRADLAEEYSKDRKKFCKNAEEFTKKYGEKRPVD

B1: UbcH5c (enzyme)
chain: not shown
notes: UbcH5c, ubiquitin-conjugating enzyme (E2) of Smurf1; The methods say the assay is the same as GST-Smurf1 with His-Ub, so a His tag is likely; also called E2; source: prokaryotic expressed, purified
Take B1: the binding result in experiment [1] was “binds”.

Take B2: the binding result with His-Ub (ubiquitin) and in the experiment with UbcH7 was “binds” in each case.

(Values after PMC5584161, “Selective compounds enhance osteoblastic activity by targeting HECT domain of ubiquitin ligase Smurf1” (Oncotarget, 2016).)
